Columns and labels:
[1] = biological target: CytERM-EGFP (not stated | Aequorea victoria) (UniProt P00180)
CytERM-TagRFP = CytERM-TagRFP (UniProt P00180)

Chain of CytERM-TagRFP (P00180 whole entry): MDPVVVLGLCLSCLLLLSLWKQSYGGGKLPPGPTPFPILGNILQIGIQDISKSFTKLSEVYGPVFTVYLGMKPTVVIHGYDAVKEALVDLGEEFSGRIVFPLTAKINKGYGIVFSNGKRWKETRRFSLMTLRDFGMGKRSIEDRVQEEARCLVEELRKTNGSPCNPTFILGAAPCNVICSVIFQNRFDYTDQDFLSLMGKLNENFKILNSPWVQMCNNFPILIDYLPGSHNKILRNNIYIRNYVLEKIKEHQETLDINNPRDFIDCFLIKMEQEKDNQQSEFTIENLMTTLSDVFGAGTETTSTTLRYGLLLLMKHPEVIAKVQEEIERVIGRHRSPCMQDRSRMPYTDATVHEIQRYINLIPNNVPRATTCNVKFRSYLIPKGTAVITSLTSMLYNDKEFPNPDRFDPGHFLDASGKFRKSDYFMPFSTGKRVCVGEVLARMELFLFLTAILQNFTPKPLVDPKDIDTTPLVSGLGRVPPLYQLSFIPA

OSER assay: average structure area, U2OS cells [1]	OSER assay: ratio of structure MFI to nuclear envelope MFI, U2OS cells (CytERM-TagRFP)	Substance
8.7 μm^2		CytERM-EGFP (from UniProt P00180 1-29)
	3.9	CytERM-TagRFP (from UniProt P00180 1-29)

— article PMC3324619
